Measurements published in patent US12319739 (F STAR DELTA, dated 2025).
Substitutions are numbered along the chain they refer to.

T1: cMSLN-His-Avi (cynomolgus, single biotin on the Avi tag in the biotinylated form)
T1 construct: Monomeric; also called cyno MSLN-His-Avi; cMSLN-Avi-His
T1 chain: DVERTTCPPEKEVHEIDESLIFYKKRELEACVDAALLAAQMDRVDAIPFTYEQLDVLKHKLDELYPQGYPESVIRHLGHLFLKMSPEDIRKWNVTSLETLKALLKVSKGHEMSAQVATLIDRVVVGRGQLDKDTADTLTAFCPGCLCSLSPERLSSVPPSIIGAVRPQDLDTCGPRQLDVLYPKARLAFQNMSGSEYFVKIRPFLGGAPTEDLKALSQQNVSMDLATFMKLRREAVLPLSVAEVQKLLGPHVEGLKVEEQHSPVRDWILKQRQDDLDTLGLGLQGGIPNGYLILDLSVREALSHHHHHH

B1: FS22-172-003-AA/FS28-185 (bispecific antibody, human IgG1, kappa, L234A L235A, V domains shown)
VH: EVQLLESGGGLVQPGGSLRLSCAASGFTFTTSAMSWVRQAPGKGLEWVSRINPYEGETNYADSVKGRFTISRDNSKNTLYLQMNSLRAEDTAVYYCARGWSIATYYKSAMDYWGQGTLVTVSS
VL: EIVLTQSPGTLSLSPGERATLSCRASQSVSSSYLAWYQQKPGQAPRLLIYGASSRATGIPDRFSGSGSGTDFTLTISRLEPEDFAVYYCQQSSYSAPVTFGQGTKVEIKR
notes: IgG1 mAb^2 with LALA; also called FS28-185 in CD137 mAb^2 format
B2: FS22-172-003-AA/FS28-024 (bispecific antibody, human IgG1, kappa, L234A L235A, V domains shown)
VH: EVQLLESGGGLVQPGGSLRLSCAASGFTLSYSSMSWVRQAPGKGLEWVSFITPSTGYTHYADSVKGRFTISRDNSKNTLYLQMNSLRAEDTAVYYCARRALTFDYWGQGTLVTVSS
VL: EIVLTQSPGTLSLSPGERATLSCRASQSVSSSYLAWYQQKPGQAPRLLIYGASSRATGIPDRFSGSGSGTDFTLTISRLEPEDFAVYYCQQASSYPLTFGQGTKVEIKR
notes: IgG1 mAb^2 with LALA; also called FS28-024 in CD137 mAb^2 format
B3: FS22-172-003-AA/FS28-256 (bispecific antibody, human IgG1, kappa, L234A L235A, V domains shown)
VH: EVQLLESGGGLVQPGGSLRLSCAASGFTFTNTYMSWVRQAPGKGLEWVSNISPTYSTTNYADSVKGRFTISRDNSKNTLYLQMNSLRAEDTAVYYCARYNSYQGGLDYWGQGTLVTVSS
VL: B2 VL with A92S, S93Y, S94Y, L97I
notes: IgG1 mAb^2 with LALA
B4: FS22-172-003-AA/FS28-256-018 (bispecific antibody, human IgG1, kappa, L234A L235A, V domains shown)
VH: B3 VH with N31Q, S101A, G104I
VL: B2 VL with A92S, S93Y, S94Y, L97I
notes: IgG1 mAb^2 with LALA
B5: FS22-172-003-AA/FS28-024-051 (bispecific antibody, human IgG1, kappa, L234A L235A, V domains shown)
VH: B2 VH with T102I
VL: B2 VL
notes: IgG1 mAb^2 with LALA
B6: FS22-172-003-AA/FS28-256-012 (bispecific antibody, human IgG1, kappa, L234A L235A, V domains shown)
VH: B3 VH with N31H, S75N, S101A, Q103H, G104A, G105A
VL: B2 VL with A92S, S93Y, S94Y, L97I
notes: IgG1 mAb^2 with LALA
B7: FS22-172-003-AA/FS28-024-053 (bispecific antibody, human IgG1, kappa, L234A L235A, V domains shown)
VH: B2 VH with T102V
VL: B2 VL
notes: IgG1 mAb^2 with LALA
B8: FS22-172-003-AA/FS28-256-021 (bispecific antibody, human IgG1, kappa, L234A L235A, V domains shown)
VH: B3 VH with N31H, S75N, S101A, Q103H, G104A, G105A
VL: B2 VL with A92H, S93N, S94Q, L97N
notes: IgG1 mAb^2 with LALA
B9: FS22-172-003-AA/FS28-256-005 (bispecific antibody, human IgG1, kappa, L234A L235A, V domains shown)
VH: B3 VH with N31E
VL: B2 VL with S93L, S94G, L97H
notes: IgG1 mAb^2 with LALA
B10: FS22-172-003-AA/FS28-256-023 (bispecific antibody, human IgG1, kappa, L234A L235A, V domains shown)
VH: B3 VH with N31Q, S101A, G104I
VL: B2 VL with A92H, S93N, S94Q, L97N
notes: IgG1 mAb^2 with LALA
B11: FS22-172-003-AA/FS28-256-014 (bispecific antibody, human IgG1, kappa, L234A L235A, V domains shown)
VH: B3 VH with N31D, S101A, Q103A, G104A
VL: B2 VL with A92S, S93Y, S94Y, L97I
notes: IgG1 mAb^2 with LALA

Legend:
[1] = target: T2, endogenous cell surface human MSLN (human, UniProt Q13421 296-598); test: flow cytometry, NCI-H226 cells + 20 nM soluble MSLN
T2 construct: whole, on cells; The cell line is named under assay; also called cell-surface MSLN on NCI-H226, OVCAR-3 and AsPC-1 cells
T2 sequence (Q13421 other isoform, or with tags, fused parts or gaps limits assumed): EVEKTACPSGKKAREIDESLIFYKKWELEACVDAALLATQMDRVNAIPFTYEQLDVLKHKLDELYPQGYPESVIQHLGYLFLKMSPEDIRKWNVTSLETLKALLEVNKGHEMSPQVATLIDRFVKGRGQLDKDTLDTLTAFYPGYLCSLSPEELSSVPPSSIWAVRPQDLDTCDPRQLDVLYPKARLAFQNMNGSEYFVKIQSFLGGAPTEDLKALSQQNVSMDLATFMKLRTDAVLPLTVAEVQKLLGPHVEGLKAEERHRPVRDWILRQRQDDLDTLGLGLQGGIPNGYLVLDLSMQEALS
Method: (§1) To confirm binding to cell surface MSLN, mAb² listed in Table 9 were analysed for binding to endogenous cell surface MSLN on the human lung cancer cell line NCI-H226. In addition, and because MSLN can be found in blood in a shed soluble form, there is a risk that this circulating MSLN might affect exposure and ultimately potency of our mAb². To confirm that presence of soluble MSLN has minimal impact, additional binding experiments to NCI-H226 cells were performed in the presence of 20 nM soluble MSLN which is 10-20 times the level of soluble MSLN found to be of diagnostic value for defining malignant mesothelioma and lung cancer patients as MSLN positive (Cui et al., 2014). Briefly, NCI-H226 cells (ATCC CRL-5826) were harvested from T175 cell culture flasks using Accutase (Gibco, A11105-01).
(§2) In both cases, cells were centrifuged at 1200 rpm for 3 min and resuspended in ice cold FACS buffer made up of DPBS (Life Technologies, 14190169) and 1% BSA (Sigma-Aldrich, A7906) at 2×10⁶ cells/ml and 50 μl per well was seeded in a 96-well V-bottom plate (Costar, 3894). All antibodies tested were diluted in FACS buffer in 120 μl at a concentration range of 0.01-200 nM (4-fold dilutions). The NCI-H226 cells were then centrifuged, supernatant removed and cells resuspended in 100 μl of each mAb dilution and incubated at 4° C. for 45 min. Cells were washed twice by centrifugation with 150 μl FACS buffer, resuspended in 100 μl containing goat anti-human IgG (γ-chain specific) F(ab')2 fragment-R-Phycoerythrin antibody (Sigma, P8047) diluted 1:1000 in FACS buffer and incubated at 4° C. for 45 min. The cells were washed once with 150 μl FACS buffer and then with 150 μl DPBS, resuspended in 150 μl DPBS containing DAPI (Biotium, 40043) at 1:10.000 and read on the BDCantoII or iQue (Intellicyt).

hMSLN-His-Avi [2] = target: T3, hMSLN-His-Avi (human, UniProt Q13421 296-598, single biotin on the Avi tag in the biotinylated form); test: SPR, hMSLN-His-Avi immobilised ~100 RU, mAb2 injected
T3 construct: Monomeric; also called human MSLN-His-Avi; hMSLN-Avi-His
T3 sequence (Q13421 other isoform, or with tags, fused parts or gaps): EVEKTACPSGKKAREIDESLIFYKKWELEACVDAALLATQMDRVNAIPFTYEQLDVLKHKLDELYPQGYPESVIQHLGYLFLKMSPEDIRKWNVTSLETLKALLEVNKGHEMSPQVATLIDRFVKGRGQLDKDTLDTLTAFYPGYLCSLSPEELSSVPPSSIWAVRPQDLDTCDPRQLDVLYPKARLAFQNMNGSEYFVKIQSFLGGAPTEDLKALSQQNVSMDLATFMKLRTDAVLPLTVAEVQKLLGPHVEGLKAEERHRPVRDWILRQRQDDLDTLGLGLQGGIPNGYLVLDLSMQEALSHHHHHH
Method: (§3) 7.1 Binding of CD137/MSLN mAb2 to Human MSLN Under Avid Conditions—Antigen Capture Method Binding of all mAb^2 to MSLN immobilised on a BIAcore chip was tested to determine the binding affinity to human MSLN under avid conditions, where a high concentration of immobilised antigen is available to allow the antibody to bind avidly. […] The association time was 5 min and the dissociation time was 10 min. Running buffer was HBS-EP (GE Healthcare BR100188). Flow cells were regenerated by injecting Glycine-HCl pH1.5 at a flow rate of 30 μl/min for 30 seconds. Data were analysed by double referencing against a flow cell which was intentionally left blank (no antigen coating). The binding kinetics were fitted with a 1:1 Langmuir model to generate binding association (k_a) and dissociation (k_d) rates. Equilibrium binding constants (K_D) were calculated by dividing the dissociation rate by the association rate for each sample. Data analysis was performed with BiaEvaluation software version 3.2.

hMSLN-His-Avi [3] = target: T3, hMSLN-His-Avi; test: ratio of SPR KDs
Method: as §3
(§4) The association time was 5 min and the dissociation time was 5 min. Running buffer was HBS-EP (GE Healthcare BR100188). Flow cells were regenerated by injecting Glycine-HCl pH2.1 at a flow rate of 30 μl/min for 15 seconds. The data was analysed as described in Example 7.1.

[4] = target: T2, endogenous cell surface human MSLN; test: flow cytometry, NCI-H226 cells
Method: as §1, §2

hMSLN-His-Avi [5] = target: T3, hMSLN-His-Avi; test: SPR, mAb2 captured on Protein G, hMSLN-His-Avi in solution
Method: as §4

cMSLN-His-Avi = target: T1, cMSLN-His-Avi; test: SPR, mAb2 captured on Protein G, cMSLN-His-Avi in solution
Method: as §4

[6] = target: human CD137 on primary human CD8+ T cells (human, UniProt Q07011 24-255); test: cell-based or functional assay
Sequence of human CD137 on primary human CD8+ T cells (Q07011 24-255): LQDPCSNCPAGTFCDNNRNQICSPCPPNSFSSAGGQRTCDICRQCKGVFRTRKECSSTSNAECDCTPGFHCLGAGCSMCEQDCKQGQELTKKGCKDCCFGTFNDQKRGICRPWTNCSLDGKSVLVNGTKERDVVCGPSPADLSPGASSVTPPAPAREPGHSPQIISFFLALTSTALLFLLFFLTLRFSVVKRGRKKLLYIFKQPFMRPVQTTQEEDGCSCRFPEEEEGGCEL

Binder	EC50 [1]	Emax (MFI) [1]	Kd (hMSLN-His-Avi [2])	KD ratio in solution/immobilised human MSLN (hMSLN-His-Avi [3])	EC50 [4]	Emax (MFI) [4]	Kd (hMSLN-His-Avi [5])	Kd (cMSLN-His-Avi)	Emax (IL-2 pg/ml), NCI-H226 co-culture, Donor A [6]	Emax (IL-2 pg/ml), NCI-H226 co-culture, Donor B [6]	IL-2 release EC50, NCI-H226 co-culture, Donor A [6]	IL-2 release EC50, NCI-H226 co-culture, Donor B [6]
B1	28.4 nM	4930 MFI	50.5 nM	5	22.9 nM	4930 MFI	248 nM	294 nM				
B2	3.05 nM	792000 MFI	0.39 nM	119	0.389 nM	773000 MFI	46.5 nM	170 nM	1120 pg/mL	1380 pg/mL	0.02 nM	0.03 nM
B3	52.9 nM	200000 MFI	36 nM	34	47.1 nM	174000 MFI	1210 nM	848 nM	1260 pg/mL	8590 pg/mL	34 nM	22.2 nM
B4	4.09 nM	357000 MFI			3.6 nM	348000 MFI			1260 pg/mL	903 pg/mL	3.22 nM	3.71 nM
B5	3.06 nM	798000 MFI	0.4 nM	105	0.477 nM	768000 MFI	42.4 nM	153 nM	1130 pg/mL	1800 pg/mL	0.08 nM	0.04 nM
B6	6.36 nM	486000 MFI	3.12 nM	259	5.7 nM	516000 MFI	809 nM	712 nM	1550 pg/mL	1100 pg/mL	1.56 nM	1.67 nM
B7	2.77 nM	788000 MFI	0.42 nM	111	0.579 nM	783000 MFI	46.4 nM	166 nM	1010 pg/mL	1440 pg/mL	0.07 nM	0.04 nM
B8	9.49 nM	774000 MFI	2.3 nM	9	4.02 nM	689000 MFI	19.6 nM	14.2 nM	1780 pg/mL	1000 pg/mL	0.06 nM	0.04 nM
B9	0.856 nM	424000 MFI			0.729 nM	441000 MFI			1100 pg/mL		1.63 nM	
B10	2.13 nM	625000 MFI	3.09 nM	18	1.29 nM	618000 MFI	56.2 nM	44.2 nM	1960 pg/mL	975 pg/mL	0.64 nM	0.23 nM
B11	1.09 nM	514000 MFI			0.727 nM	476000 MFI			1360 pg/mL		3.58 nM	
